This assay has as its target membrane protein on P. aeruginosa (whole cells, membrane fractions, solubilized membrane proteins of (Pseudomonas aeruginosa)).

Sequence of recombinant human IFN-γ (rH IFN-γ) (P01579 24-166 limits assumed): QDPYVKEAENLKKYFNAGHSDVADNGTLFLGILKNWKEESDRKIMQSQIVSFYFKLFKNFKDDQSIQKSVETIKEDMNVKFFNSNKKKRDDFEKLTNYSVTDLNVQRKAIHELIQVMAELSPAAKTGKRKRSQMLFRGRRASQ

As for “recombinant human IFN-γ (rH IFN-γ) (from UniProt P01579 24-166) (ligand)”, the percent of bacterial cells that bound IFN-γ was 73%.

For the origin of these results see patent publication US20080194611A1, “Modulation of Cell Barrier Dysfunction” (priority 2005, published 2008).
